Assay results reported in article PMC4369446 (2015).

T1: G-protein coupled receptor RE2 peptide on HLA-A*02:01 (human)
T1 peptide: RITDLGLSPH

T2: Prostaglandin transporter peptide on HLA-A*02:01 (human)
T2 peptide: LLAGIGTVPI

T3: Hypothetical 20 kD protein peptide on HLA-A*02:01 (human)
T3 peptide: RISAIILHPN

T4: IGHG1 peptide on HLA-A*02:01 (human)
T4 peptide: RLSELAIFGV

T5: cMOAT2 peptide on HLA-A*02:01 (human)
T5 peptide: NVADIGLHDV

T6: SLC1A1 peptide on HLA-A*02:01 (human)
T6 peptide: VLTGLAIHSI

T7: KIAA0735 peptide on HLA-A*02:01 (human)
T7 peptide: LISGIGIGGA

T8: KIAA0935 peptide on HLA-A*02:01 (human)
T8 peptide: RVTDEAGHPV

T9: ABC transporter MOAT-C peptide on HLA-A*02:01 (human)
T9 peptide: RISDIGLADL

T10: Endothelin-1 receptor peptide on HLA-A*02:01 (human)
T10 peptide: RVQGIGIPLV

T11: Monocarboxylate transporter 8 peptide on HLA-A*02:01 (human)
T11 peptide: AVAFIGLHTS

T12: MRP3 peptide on HLA-A*02:01 (human)
T12 peptide: NVADIGFHDV

T13: P47 peptide on HLA-A*02:01 (human)
T13 peptide: RISDIRLFIV


Experiments:
Test in all cases: cytokine release
[1] = molecular target: T1, G-protein coupled receptor RE2 peptide …
[2] = molecular target: T2, Prostaglandin transporter peptide on …
[3] = molecular target: T3, Hypothetical 20 kD protein peptide on …
[4] = molecular target: T4, IGHG1 peptide on HLA-A*02:01
[5] = molecular target: T5, cMOAT2 peptide on HLA-A*02:01
[6] = molecular target: T6, SLC1A1 peptide on HLA-A*02:01
[7] = molecular target: T7, KIAA0735 peptide on HLA-A*02:01
[8] = molecular target: T8, KIAA0935 peptide on HLA-A*02:01
[9] = molecular target: T9, ABC transporter MOAT-C peptide on …
[10] = molecular target: T10, Endothelin-1 receptor peptide on …
[11] = molecular target: T11, Monocarboxylate transporter 8 peptide …
[12] = molecular target: T12, MRP3 peptide on HLA-A*02:01
[13] = molecular target: T13, P47 peptide on HLA-A*02:01

binding result [1] | binding result [2] | binding result [3] | binding result [4] | binding result [5] | binding result [6] | binding result [7] | binding result [8] | binding result [9] | binding result [10] | binding result [11] | binding result [12] | binding result [13] | Binder
recognises | recognises | no recognition | no recognition | no recognition | no recognition | recognises | no recognition | no recognition | no recognition | no recognition | no recognition | no recognition | SIG35α / TRBV27 Cl.794 (TCR) alpha TRAV12-2 J35 CDR3: CAVSIGFGNVL beta TRBV27 TRBJ1-2 CDR3: CASSLLGDYGYTF
no recognition | recognises | no recognition | no recognition | no recognition | no recognition | no recognition | no recognition | no recognition | no recognition | no recognition | no recognition | no recognition | SIG35α / TRBV27 Cl.413 (TCR) alpha TRAV12-2 J35 CDR3: CAVSIGFGNVL beta TRBV27 TRBJ1-4 CDR3: CASSVFGGDMGEKLFF
recognises | recognises | no recognition | no recognition | no recognition | recognises | recognises | no recognition | no recognition | no recognition | no recognition | no recognition | no recognition | SIG35α / TRBV27 Cl.1574 (TCR) alpha TRAV12-2 J35 CDR3: CAVSIGFGNVL beta TRBV27 TRBJ1-1 CDR3: CASSPWERINTEAFF
recognises | recognises | no recognition | no recognition | no recognition | no recognition | no recognition | no recognition | no recognition | no recognition | no recognition | no recognition | no recognition | SIG35α / TRBV27 Cl.788 (TCR) alpha TRAV12-2 J35 CDR3: CAVSIGFGNVL beta TRBV27 TRBJ2-7 CDR3: CASGPSYEQYF
recognises | recognises | no recognition | no recognition | no recognition | no recognition | recognises | no recognition | no recognition | no recognition | no recognition | no recognition | no recognition | SIG35α / TRBV27 Cl.1593 (TCR) alpha TRAV12-2 J35 CDR3: CAVSIGFGNVL beta TRBV27 TRBJ1-5 CDR3: CASGNNQPQHF
recognises | recognises | no recognition | no recognition | no recognition | recognises | recognises | no recognition | no recognition | no recognition | no recognition | no recognition | no recognition | SIG35α / TRBV27 Cl.1606 (TCR) alpha TRAV12-2 J35 CDR3: CAVSIGFGNVL beta TRBV27 TRBJ2-7 CDR3: CASSLLGSYEQYF
recognises | recognises | no recognition | no recognition | no recognition | no recognition | recognises | no recognition | no recognition | no recognition | no recognition | no recognition | no recognition | SIG35α / TRBV27 Cl.1599 (TCR) alpha TRAV12-2 J35 CDR3: CAVSIGFGNVL beta TRBV27 TRBJ1-1 CDR3: CASSFLGAMAEAFF
recognises | recognises | no recognition | no recognition | no recognition | no recognition | recognises | no recognition | no recognition | no recognition | no recognition | no recognition | no recognition | SIG35α / TRBV27 Cl.523 (TCR) alpha TRAV12-2 J35 CDR3: CAVSIGFGNVL beta TRBV27 TRBJ2-7 CDR3: CASGSYEQYF
no recognition | recognises | no recognition | no recognition | no recognition | no recognition | no recognition | no recognition | no recognition | no recognition | no recognition | no recognition | no recognition | SIG35α / TRBV27 Cl.1086 (TCR) alpha TRAV12-2 J35 CDR3: CAVSIGFGNVL beta TRBV27 TRBJ1-2 CDR3: CASSLHGPGGYTF
recognises | recognises | no recognition | no recognition | no recognition | no recognition | no recognition | no recognition | no recognition | no recognition | no recognition | no recognition | no recognition | SIG35α / TRBV27 Cl.758 (TCR) alpha TRAV12-2 J35 CDR3: CAVSIGFGNVL beta TRBV27 TRBJ2-2 CDR3: CASSPRLAGDGELFF
